# Measurements as given in patent US20040186056A1 (SANFORD BURNHAM MEDICAL RESEARCH INSTITUTE, published 2004).
# B1: phage expressing the HMGN2 exon 3 sequence PQRRSARLSA (SEQ ID NO: 11) (other)
# chain: PQRRSARLSA
# notes: not shown: T7 phage coat protein fusion partner
# B2: control peptide APKDKPAAVKERKKPAPKPRPQELRSKKAKPAPAS (SEQ ID NO:20) (peptide)
# peptide: APKDKPAAVKERKKPAPKPRPQELRSKKAKPAPAS
# notes: also called control matrix
# What was measured:
# [1] = biological target: T1, cell surface nucleolin on intact tumor cells (MDA-MB-435, HL-60) (human, UniProt P19338 2-710); test: phage binding to tumor cells, pfu count; the filing names nucleolin as the receptor only later
# T1 construct: Native nucleolin on human tumor cell lines; also called cell surface-expressed nucleolin
# Text: Phage displaying a set of sequences corresponding to fragments of the amino-terminal portion of HMGN2 (SEQ ID NO: 5) were constructed to localize the region responsible for cell binding and in vivo homing. Fragments were designed to follow the exon/intron boundaries of the HMGN2 gene. Inserts encoding the indicated fragments were amplified from the full length HMGN2 phage clone by PCR, purified, digested and directionally cloned into the T7 415-1 and 10-3 vectors. Phage were packaged, amplified and sequenced according to the manufacturer's instructions. Phage preparations were then tested for binding to primary cells obtained from HL-60 xenograft tumors. After a 1 hour incubation at 4° C., cells were washed, and bound phage quantified. […] Furthermore, phage displaying the N-terminal portion of the active fragment SEQ ID NO: 9, which corresponds to exon 3 of the HMGN2 gene, were prepared. These phage expressing the sequence […] (SEQ ID NO: 11) bound to tumor cells 90-fold more than non-recombinant phage.
# The phage binding assay was performed essentially as follows. Attachment of phage to cells was quantified by incubating 1×10⁸ pfu of phage displaying SEQ ID NO: 9 for 60 minutes with 1×10⁶ HL-60 cells at 4° C. in Tris-buffered saline with 1 mM Ca⁺² and 1 mM MgCl₂. […] Bound phage were quantified by plating and counting pfu.
# [2] = biological target: T2, nucleolin (110-kDa protein of MDA-MB-435 cells, in cell extracts and inside cells) (human, UniProt P19338 2-710); test: affinity chromatography of MDA-MB-435 cell extract on peptide matrix, SDS gel, mass spectrometry
# T2 construct: also called 110 kDa band; full-length nucleolin
# Method: 276:48588-48595 (2001). Briefly, 6×10⁸ MDA-MB-435 cells grown in RPMI 1640 medium with 10% fetal calf serum were pelleted and lysed in 60 ml of RIPA buffer (1% Triton X-100, 0.5% deoxycholic acid, 0.1% SDS, 10 mM Tris-HCl pH 7.6, 150 mM NaCl, and 1% Protease Inhibitor Cocktail for Mammalian Cells; SIGMA). […] Matrix beads were washed three times with IP-wash buffer (0.025% Triton X-100, 50 mM Tris-HCl pH 8.4, 150 mM NaCl, 1 mM CaCl₂, and 0.02% azide), two times with 25 mM Tris-HCl pH 8.4/250 mM NaCl, and eluted with 30 μl of SDS gel sample buffer. Affinity-purified proteins were reduced with 50 mM DTT before being separated on an 8-20% polyacrylamide gel and visualized by Colloidal Blue staining (Invitrogen; Carlsbad, Calif.). Bands that appeared in the peptide SEQ ID NO: 9 eluate, but not in control eluate, were cut out, digested with trypsin and analyzed by mass spectroscopy using matrix-assisted laser desorption ionization-time of flight analysis (Voyager DE-PRO, Applied Biosystems; Foster City, Calif.). Peptide samples were prepared using an alpha-cyano-4-hydroxycinnamic acid (HCCA)/nitrocellulose matrix.
# T1 sequence (P19338 other isoform, or with tags, fused parts or gaps limits assumed): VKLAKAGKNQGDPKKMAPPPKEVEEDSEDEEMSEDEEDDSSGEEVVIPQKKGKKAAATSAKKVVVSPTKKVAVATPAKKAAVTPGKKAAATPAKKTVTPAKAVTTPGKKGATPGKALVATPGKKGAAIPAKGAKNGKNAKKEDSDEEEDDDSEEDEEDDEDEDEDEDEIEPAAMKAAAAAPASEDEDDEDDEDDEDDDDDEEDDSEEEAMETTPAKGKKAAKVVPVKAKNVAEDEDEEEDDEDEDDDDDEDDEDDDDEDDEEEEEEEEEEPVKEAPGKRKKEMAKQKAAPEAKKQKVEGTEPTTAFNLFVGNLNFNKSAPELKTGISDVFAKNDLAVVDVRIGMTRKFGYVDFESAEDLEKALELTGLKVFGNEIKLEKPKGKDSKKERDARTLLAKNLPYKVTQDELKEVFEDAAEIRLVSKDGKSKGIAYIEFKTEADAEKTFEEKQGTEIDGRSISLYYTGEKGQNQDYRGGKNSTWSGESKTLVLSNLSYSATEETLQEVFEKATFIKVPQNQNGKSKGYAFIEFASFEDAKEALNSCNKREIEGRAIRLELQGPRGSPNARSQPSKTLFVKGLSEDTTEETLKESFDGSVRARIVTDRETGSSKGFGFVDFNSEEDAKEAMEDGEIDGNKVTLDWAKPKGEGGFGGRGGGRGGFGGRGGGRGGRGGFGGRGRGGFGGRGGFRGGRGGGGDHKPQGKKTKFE
# T2 sequence (P19338 other isoform, or with tags, fused parts or gaps limits assumed): as above
binder,measurement,setting,value
B1,fold binding over non-recombinant phage,[1],90 fold
B2,binding result,[2],no binding
